Legend:
[1] = target: T1, phthalate dioxygenase (PDO) (Comamonas testosteroni, UniProt B7WQT1); assay: LC-MS product detection; type: biochemical; conditions: VanB reductase, 2 mM substrate, 500 µM NADH, 100 µM ferrous ammonium sulfate, 30 °C
T1 construct: gene CtesDRAFT_PD2022; codon-optimized, MBP tag removed with TEV protease, pMCSG9, E. coli C41(DE3); authors use structure PDB 7V25 (earlier work) for PDO residues
T1 sequence (B7WQT1 1-439): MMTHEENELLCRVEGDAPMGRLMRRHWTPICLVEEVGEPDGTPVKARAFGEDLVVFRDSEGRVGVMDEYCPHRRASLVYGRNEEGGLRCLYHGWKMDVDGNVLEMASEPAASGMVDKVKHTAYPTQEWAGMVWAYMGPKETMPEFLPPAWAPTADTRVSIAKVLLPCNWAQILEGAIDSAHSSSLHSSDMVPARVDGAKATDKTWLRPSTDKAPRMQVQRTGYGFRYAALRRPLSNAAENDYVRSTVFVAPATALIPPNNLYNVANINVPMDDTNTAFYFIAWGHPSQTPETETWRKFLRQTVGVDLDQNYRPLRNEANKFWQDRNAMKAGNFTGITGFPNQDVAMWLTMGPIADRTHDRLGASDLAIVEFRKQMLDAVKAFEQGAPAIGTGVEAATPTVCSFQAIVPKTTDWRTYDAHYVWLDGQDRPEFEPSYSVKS

[2] = substrate: Cc1ccc(C(=O)O)cc1; assay: purified protein; conditions: apparent; VanB reductase (4:1), 500 µM NADH, O2, 100 µM ferrous ammonium sulfate
[3] = substrate: O=C(O)c1ccc(O)cc1; assay: purified protein; conditions: apparent; VanB reductase (4:1), 500 µM NADH, O2, 100 µM ferrous ammonium sulfate
[4] = substrate: CC(C)c1ccc(C(=O)O)cc1; assay: LC-MS product formation, Michaelis-Menten; type: biochemical, Comamonas testosteroni; conditions: apparent; VanB reductase (4:1), 500 µM NADH, O2, 100 µM ferrous ammonium sulfate
Excerpt: (§1) LC-MS product formation, Michaelis-Menten on TsaM (p-toluenesulfonate methyl-monooxygenase)

[5] = substrate: COc1ccc(C(=O)O)cc1; assay: LC-MS product formation, Michaelis-Menten; type: biochemical, Comamonas testosteroni; conditions: apparent; VanB reductase (4:1), 500 µM NADH, O2, 100 µM ferrous ammonium sulfate
Excerpt: as §1

[6] = substrate: CCc1ccc(C(=O)O)cc1; assay: LC-MS product formation, Michaelis-Menten; type: biochemical, Comamonas testosteroni; conditions: apparent; VanB reductase (4:1), 500 µM NADH, O2, 100 µM ferrous ammonium sulfate
Excerpt: as §1

[7] = substrate: Cc1cccc(C(=O)O)c1; assay: LC-MS product formation, Michaelis-Menten; type: biochemical, Comamonas testosteroni; conditions: apparent; VanB reductase (4:1), 500 µM NADH, O2, 100 µM ferrous ammonium sulfate
Excerpt: as §1

[8] = substrate: O=S(=O)(O)c1ccc(O)cc1; assay: LC-MS product formation, Michaelis-Menten; type: biochemical, Comamonas testosteroni; conditions: apparent; VanB reductase (4:1), 500 µM NADH, O2, 100 µM ferrous ammonium sulfate
Excerpt: as §1

[9] = substrate: Cc1ccc([N+](=O)[O-])cc1; assay: LC-MS product formation, Michaelis-Menten; type: biochemical, Comamonas testosteroni; conditions: apparent; VanB reductase (4:1), 500 µM NADH, O2, 100 µM ferrous ammonium sulfate
Excerpt: as §1

[10] = substrate: CNc1ccc(C(=O)O)cc1; assay: LC-MS product formation, Michaelis-Menten; type: biochemical, Comamonas testosteroni; conditions: apparent; VanB reductase (4:1), 500 µM NADH, O2, 100 µM ferrous ammonium sulfate
Excerpt: as §1

[11] = substrate: Cc1ccc(S(=O)(=O)O)cc1; assay: LC-MS product formation, Michaelis-Menten; type: biochemical, Comamonas testosteroni; conditions: apparent; VanB reductase (4:1), 500 µM NADH, O2, 100 µM ferrous ammonium sulfate
Excerpt: as §1

[12] = substrate: Cc1ccc(N)cc1; assay: LC-MS product formation, Michaelis-Menten; type: biochemical, Comamonas testosteroni; conditions: apparent; VanB reductase (4:1), 500 µM NADH, O2, 100 µM ferrous ammonium sulfate
Excerpt: as §1

[13] = substrate: O=S(=O)(O)c1ccccc1; assay: LC-MS product formation, Michaelis-Menten; type: biochemical, Comamonas testosteroni; conditions: apparent; VanB reductase (4:1), 500 µM NADH, O2, 100 µM ferrous ammonium sulfate
Excerpt: as §1

[14] = substrate: O=C(O)c1ccccc1; assay: LC-MS product formation, Michaelis-Menten; type: biochemical, Comamonas testosteroni; conditions: apparent; VanB reductase (4:1), 500 µM NADH, O2, 100 µM ferrous ammonium sulfate
Excerpt: as §1

[15] = substrate: CSc1ccc(C(=O)O)cc1; assay: LC-MS product formation, Michaelis-Menten; type: biochemical, Comamonas testosteroni; conditions: apparent; VanB reductase (4:1), 500 µM NADH, O2, 100 µM ferrous ammonium sulfate
Excerpt: as §1

Question: How did the LC-MS product detection [1] turn out when `O=C(O)c1ccccc1` [compound 38, benzoate] was run?
Answer: PDO-VanB system catalyzes a dioxygenation reaction to transform benzoate

B1: TsaM (p-toluenesulfonate methyl-monooxygenase) (Comamonas testosteroni) (protein)
chain: MFIRNCWYVAAWDTEIPAEGLFHRTLLNEPVLLYRDTQGRVVALENRCCHRSAPLHIGRQEGDCVRCLYHGLKFNPSGACVEIPGQEQIPPKTCIKSYPVVERNRLVWIWMGDPARANPDDIVDYFWHDSPEWRMKPGYIHYQANYKLIVDNLLDFTHLAWVHPTTLGTDSAASLKPVIERDTTGTGKLTITRWYLNDDMSNLHKGVAKFEGKADRWQIYQWSPPALLRMDTGSAPTGTGAPEGRRVPEAVQFRHTSIQTPETETTSHYWFCQARNFDLDDEALTEKIYQGVVVAFEEDRTMIEAHEKILSQVPDRPMVPIAADAGLNQGRWLLDRLLKAENGGTAP
notes: codon-optimized, N-terminal His-tag with TEV site, E. coli C41(DE3), trimer ~120 kDa; assayed with VanB as non-native reductase
Question: For B1, which Km [2] is on record?
Answer: 13 ± 1.3 µM

Question: And the Vmax [2]?
Answer: 11 µM/min

Question: And the kcat [2]?
Answer: 0.0933 s⁻¹

Question: What about the kcat/Km [2] of the same molecule?
Answer: 7200 M⁻¹ s⁻¹

Question: What about the Km [3] of the same molecule?
Answer: 86 ± 2.1 µM

Question: And the Vmax [3]?
Answer: 1 µM/min

Question: And the kcat [3]?
Answer: 0.00833 s⁻¹

Question: And the kcat/Km [3]?
Answer: 98 M⁻¹ s⁻¹

Question: And the Km [4]?
Answer: 150 ± 6.5 µM

Question: And the Vmax [4]?
Answer: 4.1 µM/min

Question: What about the kcat [4] of the same molecule?
Answer: 0.035 ± 0.00433 s⁻¹

Question: And the kcat/Km [4]?
Answer: 230 ± 24 M⁻¹ s⁻¹

Question: And the Km [5]?
Answer: 180 ± 8.9 µM

Question: What about the Vmax [5] of the same molecule?
Answer: 3.3 µM/min

Question: And the kcat [5]?
Answer: 0.0267 ± 0.00417 s⁻¹

Question: What about the kcat/Km [5] of the same molecule?
Answer: 150 ± 20 M⁻¹ s⁻¹

Question: What about the Km [6] of the same molecule?
Answer: 65 ± 3.8 µM

Question: And the Vmax [6]?
Answer: 7.3 µM/min

Question: What about the kcat [6] of the same molecule?
Answer: 0.06 ± 0.00567 s⁻¹

Question: And the kcat/Km [6]?
Answer: 930 ± 95 M⁻¹ s⁻¹

Question: What about the Km [7] of the same molecule?
Answer: 100 ± 4.2 µM

Question: What about the Vmax [7] of the same molecule?
Answer: 3.1 µM/min

Question: What about the kcat [7] of the same molecule?
Answer: 0.0267 ± 0.00617 s⁻¹

Question: And the kcat/Km [7]?
Answer: 260 ± 50 M⁻¹ s⁻¹

Question: And the Km [8]?
Answer: 80 ± 2.8 µM

Question: What about the Vmax [8] of the same molecule?
Answer: 1.3 µM/min

Question: What about the kcat [8] of the same molecule?
Answer: 0.011 ± 0.00167 s⁻¹

Question: What about the kcat/Km [8] of the same molecule?
Answer: 130 ± 22 M⁻¹ s⁻¹

Question: And the Km [9]?
Answer: 230 ± 12 µM

Question: And the Vmax [9]?
Answer: 2.9 µM/min

Question: What about the kcat [9] of the same molecule?
Answer: 0.0233 ± 0.00417 s⁻¹

Question: And the kcat/Km [9]?
Answer: 100 ± 16 M⁻¹ s⁻¹

Question: What about the Km [10] of the same molecule?
Answer: 240 ± 11 µM

Question: What about the Vmax [10] of the same molecule?
Answer: 3.2 µM/min

Question: And the kcat [10]?
Answer: 0.0267 ± 0.00217 s⁻¹

Question: And the kcat/Km [10]?
Answer: 110 ± 8.8 M⁻¹ s⁻¹

Question: What about the Km [11] of the same molecule?
Answer: 3.8 ± 0.60 µM

Question: What about the Vmax [11] of the same molecule?
Answer: 6.2 µM/min

Question: What about the kcat [11] of the same molecule?
Answer: 0.05 ± 0.00367 s⁻¹

Question: What about the kcat/Km [11] of the same molecule?
Answer: 13000 ± 2200 M⁻¹ s⁻¹

Question: And the Km [12]?
Answer: 110 ± 7.7 µM

Question: And the Vmax [12]?
Answer: 3.2 µM/min

Question: What about the kcat [12] of the same molecule?
Answer: 0.0267 ± 0.00233 s⁻¹

Question: What about the kcat/Km [12] of the same molecule?
Answer: 230 ± 21 M⁻¹ s⁻¹

Question: What about the Km [13] of the same molecule?
Answer: 76 ± 3.6 µM

Question: What about the Vmax [13] of the same molecule?
Answer: 1.1 µM/min

Question: And the kcat [13]?
Answer: 0.00967 ± 0.00333 s⁻¹

Question: What about the kcat/Km [13] of the same molecule?
Answer: 120 ± 47 M⁻¹ s⁻¹

Question: And the Km [14]?
Answer: 80 ± 1.5 µM

Question: And the Vmax [14]?
Answer: 1 µM/min

Question: What about the kcat [14] of the same molecule?
Answer: 0.00867 ± 0.00217 s⁻¹

Question: And the kcat/Km [14]?
Answer: 99 ± 20 M⁻¹ s⁻¹

Question: What about the Km [15] of the same molecule?
Answer: 240 ± 2.5 µM

Question: What about the Vmax [15] of the same molecule?
Answer: 2.6 µM/min

Question: And the kcat [15]?
Answer: 0.0217 ± 0.00267 s⁻¹

Question: And the kcat/Km [15]?
Answer: 88 ± 14 M⁻¹ s⁻¹
